The record followed here is patent publication US20200190171A1 (FAIRBANKS PHARMACEUTICALS, published 2020).

The target of one experiment is T1, mouse FSTL3 (mouse, UniProt Q9EQC7 24-256, limits assumed).
T1 construct: also called mFSTL3
T1 sequence (looked up): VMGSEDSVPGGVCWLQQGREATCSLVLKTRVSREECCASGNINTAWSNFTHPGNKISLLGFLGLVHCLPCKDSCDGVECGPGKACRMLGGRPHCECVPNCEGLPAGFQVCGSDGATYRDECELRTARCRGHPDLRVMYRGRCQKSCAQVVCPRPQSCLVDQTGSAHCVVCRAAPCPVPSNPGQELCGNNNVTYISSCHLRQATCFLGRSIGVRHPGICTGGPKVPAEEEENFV
The experiment can be described thus: Western blot. The procedure: (§1) Secondary antibody (donkey anti-mouse IgG-Horse Radish Peroxidase label) was purchased from Jackson Immuno Research in West Grove Pa. Human FSTL3 was produced by Fairbanks Pharmaceuticals by cloning the human FSTL3 cDNA into an expression plasmid containing a 6-His tag. 293 cells were transfected with this plasmid and stable colonies selected. Cells were grown for 7-14 days, medium collected, and FSTL3 was purified on Nickel-Sepharose-Sephadex Beads (GE Healthcare Life Sciences, Pittsburgh Pa. Ligands: activin A (Cat No:338-AC-050), activin B (Cat No:659-AB-005), and MSTN (Cat No:788-68-010) were purchased from R&D Systems (Minneapolis, Minn.). GDF11 (Cat No:TP723130), was purchased from Origene (Rockville Md.)
(§2) Direct binding studies were conducted by performing Western blot, a technique well known in the art. Pre-determined doses of human FSTL3 (hFSTL3) or mouse FSTL3 (mFSTL3), that are easily detectable at the end of experimentation, were loaded onto SDS gels (10% NuPage gels). After electrophoresis, proteins were transferred to PVDF membranes and then tested with the selected and purified anti-hFSTL3 antibodies from FIG. 3.

For experiment [1], the target named is T2, human Follistatin-like-3 (FSTL3) protein, 6-His tagged (human, UniProt O95633 27-263, limits assumed).
T2 construct: Made in-house as a secreted protein from stably transfected 293 cells; also called hFSTL3; human FSTL3; not shown: 6-His tag
T2 sequence (looked up): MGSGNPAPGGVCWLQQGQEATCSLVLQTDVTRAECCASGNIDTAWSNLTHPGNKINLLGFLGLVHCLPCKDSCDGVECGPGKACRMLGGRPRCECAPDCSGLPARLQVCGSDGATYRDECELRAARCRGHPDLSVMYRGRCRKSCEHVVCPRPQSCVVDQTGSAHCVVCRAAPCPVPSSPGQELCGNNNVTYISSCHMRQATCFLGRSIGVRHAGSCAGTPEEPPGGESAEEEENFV
In words: Western blot. The procedure:
as §1, §2
A general note: Immunoblotting shows a protein as a band on a membrane.

B1: FP-102 anti-hFSTL3 monoclonal antibody (antibody, V domains shown)
VH: QVKLQQPGAELVKPGASVKLSCKASGYTFTSYWMHWVNQRPGQGLEWIGEINPGNGRTNYNEKFKSKATLTVDKSSSTAYMQLSSLTSEDSAVYFCARWLLPRGPMDYWGQGTSVTVSS
VL: DIVLTQSQKFMSTSVGDRVSVTCKASQNVGTNVAWYQQKPGQSPQGLIYSASYRYSGVPDRFTGSGSGTDFTLTISNVQSEDLAEYFCQQYNSYPLTFGAGTKLELKR
notes: Murine monoclonal from Balb-C mice; also called clone 33
For the molecule B1, the binding result (with mouse FSTL3; in experiment [1]) was “binds” in each case.
